Data published in paper PMC9937993, “Structures of the NDP-pyranose mutase belonging to glycosyltransferase family 75 reveal residues important for Mn^2+ coordination and substrate binding” (The Journal of Biological Chemistry, 2023).

Experiments:
[1] = molecular target: MtdL E341K mutant (Marinactinospora thermotolerans SCSIO 00652); assay: SEC-MALS; static light scattering (SLC): Superdex 200 Increase column on an Akta Pure L system, on-line eight-angle static light scattering detector (DAWN HELEOS II) and differential refractive index detector; molar masses by ASTRA 7.0.1
[2] = molecular target: MtdL wildtype, His6-tagged (Marinactinospora thermotolerans SCSIO 00652); assay: as above

Substance | stoichiometry N [1] | stoichiometry N [2]
MtdL E341K mutant (enzyme) | 2 | –
MtdL wildtype, His6-tagged (enzyme) | – | 4
